Source: the DeepSol protein solubility set

Test: soluble on expression in E. coli; label from the status in PepcDB or PDB records

| Sequence | soluble on expression in E. coli |
| --- | --- |
| MGSDKIHHHHHHMSKRLLLFDFDETYFKHNTNEEDLSHLREMEKLLEKLTNNNEVITAVLTGSTFQSVMDKMDQVNMTFKPLHIFSDLSSKMFTWNNGEYVESETYKKKVLSEPFLFEDIEDILRHISAQYNVEFIPQRAFEGNETHYNFYFHSTGNHNNDSRILEALVRYANDQNYTARFSRSNPLAGDPENAYDIDFTPSNAGKLYATQFLMKKYNIPVKSILGFGDSGNDEAYLSYLEHAYLMSNSRDEALKQKFRLTKYPYYQGITLHVKEFVEGKYDY | not soluble |
| MGSDKIHHHHHHEDFLQKDPPSSPSQSVFWQKKSDFESALAGTYSVMYSGVFSQIMPCLDGLTDNAIVQHSEGTYGWAKTIAQGDLTPNQGGFVTDIYGNCYKGIARVHILMEQLDQYTGSDISADEKKFMLAQCKALRGYFYSWLYQCYKEVPVVTQSLDLNTMYQPKATRAEVLNRVMTDYDEAISELPDKLYSDSQTSGRFTVSAVKALKARILLFDAYDSNGKAISSKMEEVLTLLQSIKGYSLAARVRDNFISEKQLASPEIMFSVRFLRPNLTHSMDLYYGAWAVLDPTRNMVDAFECTDGKPWGESPLTVRPDESILYGNDDALKKAERAKMFMNRDRRLYESVNHSMMANFVDDGFKDEEVQVNESNNKGPTGFSALKYVQPTDVTPGYSTVSDADIVVLRYAHVLLMIAEAENEAHGATTTALNAINEVRTRSGQPAIEAGISQDDLRERIRNEWRIETCFEGLRYFQLKRWKLMDKRVNGVEDPAYPGYIKVYKPAFEFFPIPQSEIDKAGGVLKQDPAYE | not soluble |
| MSTDTSGVGVREIDAGALPTRYARGWHCLGVAKDYLEGKPHGVEAFGTKLVVFADSHGDLKVLDGYCRHMGGDLSEGTVKGDEVACPFHDWRWGGDGRCKLVPYARRTPRMARTRSWTTDVRSGLLFVWHDHEGNPPDPAVRIPEIPEAASDEWTDWRWNRILIEGSNCRDIIDNVTDMAHFFYIHFGLPTYFKNVFEGHIASQYLHNVGRPDVDDLGTSYGEAHLDSEASYFGPSFMINWLHNRYGNYKSESILINCHYPVTQNSFVLQWGVIVEKPKGMSEEMTDKLSRVFTEGVSKGFLQDVEIWKHKTRIDNPLLVEEDGAVYQLRRWYEQFYVDVADIKPEMVERFEIEVDTKRANEFWNAEVEKNLKSREVSDDVPAEQH | soluble |
| MGSDKIHHHHHHMSLLKITQGLFRLSDTRMLRLDELTLEQNQCWAFVGANGSGKSALARALSGELPLLSGERTTGFQHPVRLSFEQLQKLVSDEWQRNNTDLLSEGEDDTGRTTAEVIQDSLNDPTRCQQLACQFGIAHLLERRFKYLSTGETRKAMLCQALMPQPDLLILDEPFDGLDVTSRQQLADELRKLVDTGYTLVLILNRFDDIPDFINHIGVLADCTLTRIGEREAILSEALVAQLAFSEKLSGSSLPEPEDPQRHVTLPADEAHILLRNGVVQYNDRPILHELTWEVFPGQHWQIIGPNGAGKSTLLSLITGDHPQGYSNDLTLFGRKRGSGETIWDIKRHIGYVSSSLHLDYRVSTSVRNVILSGFFDSIGIYQAVSDRQRHLTEQWLILLGLSGAIADTPFQSLSWGQQRLTLIARALVKHPALLILDEPLQGLDPLNRQLVRRWLDILIGEGETQLLFVSHHAEDAPECITHRLTFVPHNDIYRYQIDELCK | not soluble |
| MLWQKPTAPEQAPAPARPYQGVRVKEPVKELLRRKRGHASSGAA | soluble |
| MENPLQKARILVNQLEKYLDHYAKEYDVEHLAGPQGHLVMYLYKHPDKDMSIKAVEEILHISKSVASNLVKRMEKNGFIAIVPSKTDKRVKYLYLTHLGKKKATQFEIFLEKLHSTMLAGITKEEIRTTKKVIRTLAKNMAMENLD | soluble |
| MANDPYIQSFTCFDGTRRLLTAALPEVALALKQAVAGGAAGPLLVFDNATGRSVDLDIRGSSEDLLARLVVAGERQPAEEAAPRGRGRPKLGVVAREVTLLPRHWEWLAAQPGGASVALRKLVEEARRSQSGRARQAQERAYHFMNAMAGDLPGFEEATRALFAGDREGFAERIAGWPTDVREHAAWLASDGES | not soluble |
| MGSDKIHHHHHHMVYVGTSGFSFEDWKGVVYPEHLKPSQFLKYYWAVLGFRIVELNFTYYTQPSWRSFVQMLRKTPPDFYFTVKTPGSVTHVLWKEGKDPKEDMENFTRQIEPLIEEQRLKMTLAQFPFSFKFSRKNVEYLEKLRESYPYELAVEFRHYSWDREETYEFLRNHGITFVVVDEPKLPGLFPYRPITTTDYAYFRFHGRNERWFEAEGEERYDYLYSEEELKTLFEDVVELSRRVKETYVFFNNCYKGQAAINALQFKKMLEERV | soluble |
| MSGEGMTAVSEPVQLTVPQMLAQLQGTDTSLRYYAAWWLGKFGLETATAAERQAIVSALIAALADEADRTELGGYPLRRNAARALGKLGDRQAVPALIECLRCEDFYVREAAAIALGQLGDPRAIAPLQSLLEGGVAMARLVPGRPHLVQPVEAVIESLGHLGATEAIALIEPFLAHEMPRVQFAAARALFQLTGDAVYGDRLLAALNSEDVQLRRTALLDLGAMGYLPAAEAILQAGVEASFKLIALHGILGQQLRQAAPAEQTLSLFQGLDQLLLEHHHHHH | soluble |
| MNQTKLNQRLKQQQLFDIYGELLTKRQACYFNEYINLDLSMQEIADKYQVKKSSIHQHIKTCNLIFNRFEAKLQLFKKQQLRLKLYEKITDPQLREQLIKLR | soluble |
| GMASIKGEVDEIANYGNLKITKEEERVNITGDLEKFSSLEEGTIVTRFNMNDTSIQSLIGLSDGNKANNYFSLYVSGGKVGYELRRQEGNGDFNVHHSADVTFNRGINTLALKIEKGIGAKIFLNGSLVKTVSDPNIKFLNAINLNSGFIGKTDRANGYNEYLFRGNIDFMNIYDKPVSDNYLLRKTGETK | soluble |
| MNRLSIFVDGNNMFYAQQKNGWFFDPRRVLEYFKHEQSETTLINAFWYTGLKDPQDQRGFRDALISLGYTVRTKILKEYYDDTSGRYSQKANLDIEIVVDMFNTVDQYDRVVLFSGDGDFERAIELLRSKNTHITVVSTEGMIARELRNATDRYIDLNDIRDQIEKT | not soluble |
| MGSDKIHHHHHHMMLRASYGTIRKVNGNSSLEMDTAYLMLGERCVYNCLYCAQSRSSTSPSHFLSRVTWKEVSEDLLGKLNDRFKRVCIQVVSYPSYGKDLRLIIPRFRIPVSVSVRAVSIEEVVEYFELGADRVGIAVDVPNKTLFEKIRGGKYERHLHILEKVSEMFPGRITTHVIVGLGESDKDIVDFTVWARERNIVVSLFAFTPIKGTAFENRERPSLERYRKIQLVTYLLEKNLIKPENIIFDSNGKIIDVEWNGEFPEEALRTRGCPHCTRPYYNESPRGPIYNVHWR | not soluble |
| MAETPNQRITEINLNKEMRTSFLDYAMSVIVARALPDVRDGLKPVHRRILYAMNDLGMTSDKAYKKSARIVGEVIGKYHPHGDTAVYFTMVRMAQDFSYRNMLVDGHGNFGSVDGDMAAAMRYTEARMSKISMELLRDINKDTIDYADNYDGSEREPVILPARFPNLLVNGSSGIAVGMATNIPTHHLGEVIDGVLALSHDPEITIRDLMEYIPGPDFPTAGMIMGRSGIRRAYESGRGSITVRGRVDIEEKKNGKETIVITEIPYQVNKARLVERIAELAREKKIDGITSLNDESDRSGMRIVIEVRRDISASVIVNNLFKMTALQTTFGINMLALVDNHPKVLNLKEILYYYLEHQKVVIRRRTEFELRKAEARAHILEGLRIALDNIDAIIKLIRGSKTSDVAKEGLMTQFNLSDKQAQAILDMRLQRLTGLEREKIEEEYQNLVALINDLKAILADDERILEIIREELEEIKVKYADKRRTEILAGDLVSLEDEDLIPEEEVAITLTKRGYIKRLPLSTYRSQRRGGRGIQGMSTHEDDFVEHLVATSTHDTLLFFTNTGKVYRSKGYEVPEYGRTAKGIPIINLLGIESQEQVNAVINLSEFTDDSYLFFTTKHGVVKRTTLSQFAKIRQSGLRAVELRENDELISVQMTDGSKNMIIATKHGQSIYFPEENIRVMGRTAAGVRGIRLREDDEVIGMEVLEDDEKVLVVTEKGYGKQTPASQYPLRNRGGMGVKTVTITEKNGNLVAMKTVTGEEDLMLMTVSGVLIRFEIDTVSQTGRSAMGVKLIRLDEDEKVATVAKVPKEEDEVELEEEIDETLITQVPDESFEDAPGSDIEE | not soluble |
| MGSDKIHHHHHHMHQDTVRGKAFAMPLISPAYPAGPYRFRNREYLIITYRTDPQKLRDLVPEPLQVCEPMVKFEFIRMPDSTGFGDYTEGGQVIPVSFYGRRGSYTHCMFLDDHPPIAGGRELWGFPKKLASPTLRTETDTLVGTLDYGPVRVATGTMGYKHRAADLASVRASLAEPNFLLKIIPHVDGTPRICELVEYHLEDVHLRGAWTGPAALNLWSHALAPVAELPVLEVVSAVHLVADLTLALGKVVHDYLAKA | not soluble |
| MNIQKAHDVAPPEWLAQVREPALCPGQIIVDPHHHLWDRQGQLYLLPQFLEDQAGDHRIVSTVYVQGRAMYRAGAHALAPVGETEFARGVAAMCASGRYGETRVCDGIVAHADLTQGDGVERVLQAHVEAGGRHFKGIRHMATWDADPALMNPDVAPPPHLLGETRFRRGFAVLDRMGLVFDAWVFHPQLADVVALASAFPDTTIVLNHLGGILNTGSYAGRREAIRADWLASLRELATCPNVYLKLGGLGMRISGFDYPSRPRPPNSTELAADFAPYMLPAIDLFGPERCMFESNFPVDKRSYTYGVLWNAFKRLAADMSQAERDHLFYQTAAKAYRLNLDHIAADMAGDPLEHHHHHH | not soluble |
| MALSKRELDELKPWIEKTVKRVLGFSEPTVVTAALNCVGKGMDKKKAADHLKPFLDDSTLRFVDKLFEAVEEGRSSRHS | soluble |
| MPKSFYFCKTLERLTLSDKILVDVPCQVSLPSLRELDLFCVVYKDEDSHVKLLSSCPVLKHLKVTRNRRVEDNVRTFRVEVPSLLRLDYKAGMMFREDSDMSDPFLVTDTPNLLSLHIFDTVGYSLSVWYMPHLVTVVTDELFPSEKFMRPLSSVKYLALSPFDTMVPWCDAVNNYSRLVECMIHLSEYDLLESLLVLLSKCSKLKVFLVDSDIPRWNHDPALWNQPSSIPRCLSSHLEIFEWDGYVGREDEKKIIRYILENSKYLKTAGISPNSTFSGEEKQKMEELESMHRTPTSVLLSSARMSFRY | not soluble |
| MGSDKIHHHHHHMRKSIVLSTAMALAAGTAAYAAEISDGKVKIGILNDQSGVYANFGGKYSYEAAKMAVEDFGGKVLGAPVEVVTADHQNKADVASNIARQWYDTEQVDSIMELTSSSVGLAVQALSKDKKKITVNTGAATTELTGKQCSPYGFHWAYDTYSLAVGTGGALVKQGGDSWFFLTADYAFGYSLEENTSNFVKANGGKVLGSVRHPLATTDYSSFLLQAQSSGAKVIGLANAGLDTSNAIKQASEFGIVAGGQRLAALLFTLAEVHGLGLEAAQGLTLTEGFYWDRDDESRKFGERFKERTGAMPNMIHTGTYSAVLHYLKAIEKAGTDDADAVAKAMKEMPVNDVFAKDGHVAANGRMIHDMYLMEVKKPDESKQPWDYYKVLATIPGKEAFMDPTKSGCPLVKQ | not soluble |
| MVGWRIVRIATHPEVQGRGIGSWLLERLYEESVERGYDWLGSGFGINEQLLRFWLRNGFLVLHLSPD | not soluble |
| MERCGWVSQDPLYIAYHDNEWGVPETDSKKLFEMICLEGQQAGLSWITVLKKRENYRACFHQFDPVKVAAMQEEDVERLVQDAGIIRHRGKIQAIIGNARAYLQMEQNGEPFVDFVWSFVNHQPQVTQATTLSEIPTSTSASDALSKALKKRGFKFVGTTICYSFMQACGLVNDHVVGCCCYPGNKPLEHHHHHH | soluble |
| GFRKMAFPSGKVEGCMVQVTCGTTTLNGLWLDDTVYCPRHVICTAEDMLNPNYEDLLIRKSNHSFLVQAGNVQLRVIGHSMQNCLLRLKVDTSNPKTPKYKFVRIQPGQTFSVLACYNGSPSGVYQCAMRPNHTIKGSFLNGSCGSVGFNIDYDCVSFCYMHHMELPTGVHAGTDLEGKFYGPFVDRQTAQAAGTDTTITLNVLAWLYAAVINGDRWFLNRFTTTLNDFNLVAMKYNYEPLTQDHVDILGPLSAQTGIAVLDMCAALKELLQNGMNGRTILGSTILEDEFTPFDVVRQCSGVTHHHHHH | soluble |
